Data set [1] is described as follows: In vitro glycosylation of violacein by purified UGT enzymes (% conversion). It counts as biochemical. The conditions noted are these: for Product % production: Mono-glucoside / Product % production: Tetra-glucoside / Product % production: Total conversion / Product % production: Tri-glucoside / Product % production: Di-glucoside / Product % production: Penta-glucoside: 350 μM violacein, 24 h incubation at 30° c. The method, then:
(§1) Glycosyltransferase (UGT) enzymes were produced and purified as follows. 5 mL of 2× concentrated LB medium+appropriate antibiotic (50 μg/mL) was inoculated with E. coli XJb (DE3) strains expressing a plasmid of interest and incubated overnight at 30° C. with shaking. The following day, 50 ml TB medium+antibiotic in 250 ml baffled flasks was inoculated with 0.5 mL overnight cell culture and incubated for 3.5 hrs at 30° C. The cell cultures were then induced with 3 mM arabinose, 0.1 mM IPTG and Incubated for 24 h at 25° C., with shaking. The following day, the cells were collected by centrifugation at 6500×g for 10 mins at 4° C. Cells were resuspended in 5 mL ice-cold protein extraction buffer (50 mM Tris-HCl pH7.4+1 mM phenylmethanesulfonyl fluoride+1 cOmplete™, mini, EDTA-free Protease Inhibitor Cocktail tablet (Roche). The resuspended material was transferred to five 1.5 mL eppendorf tubes and kept at −80° C. for at least 15 mins. The tubes were then thawed at room temperature, as the tubes were thawing the following reagents were added; 2.6 mM MgCl2, 1 mM CaCl2, 300 U/mL DNase solution (DENARASE®, C-lecta) and 0.2 mg/mL lysozyme (Sigma) dissolved in MilliQwater. Tubes were gently inverted to mix then were incubated for 10-15 mins at 37° C. […] of 4× Binding buffer was then added to the tubes (to final concentration of 50 mM Tris-HCl pH7.4, 10 mM imidazole, 500 mM NaCl and the pH adjusted to 7.4 with HCl). The mix was centrifuged at 10000×g for 30 mins at 4° C., the supernatant transferred to a fresh eppendorf tubes and centrifuged again to remove any remaining cellular debris at 10000×g for 30 minutes at 4° C. While the enzyme prep was centrifuging, HisPur 0.2 ml spin column (Thermo Scientific) are prepared as instructed by manufacturer. HisPur column was washed with MilliQ water and equilibrated with two resin-bed volumes of 1×his-binding buffer two times. HisPur column was centrifuged at 700×g for 2 minutes to remove buffer. 600 μL of collected supernatant from the centrifuged enzyme preparation was transferred to the HisPur column and then incubated at 4° C. with gentle shaking by inversion for 30 minutes. After 30 minutes, the unbound protein was removed by centrifugation 700×g for 2 min. The remaining 600 μL of collected supernatant from the centrifuged enzyme preparation was loaded to the HisPur column and incubated again at 4° C. with shaking. Unspecific binding of other proteins was removed by washing twice with 1× binding buffer (50 mM Tris-HCl, 0.5M NaCl, 10 mM Imidazole, pH 7.4). Enzyme was resuspended in 200 μl elution buffer for 2 minutes before elution by centrifugation (700×g for 2 minutes at 4° C.). Enzymes were used immediately in in vitro enzyme assays or stored at −20° C. in 50% glycerol until needed.
(§2) For in vitro studies of glycosyl transferase performance in glycosylating violacein and violacein derivatives, purified glycosyl transferases were prepared as described in Example 4 and in vitro enzyme assays run as described below in Table 19.
(§3) The reaction mixture was scaled up or down as required. The reaction mixture was incubated without shaking at 30° C. for 24 hours. Extraction and analysis were performed as described in Examples 3 and 5. To confirm the identity of the produced glycosides LC-MS/QTOF was used as described above to confirm the expected mass and fragmentation pattern of each detected molecule. Quantification of violacein glycoside or other violacein derivative glycoside production was done by comparing the peak area of the substrate and the produced glycoside with authentic analytical standards (where available), where a standard was unavailable, quantification was achieved by comparing with an authentic analytical standard of the substrate. % Conversion of a substrate to a glycoside by specific Glycosyl transferases was calculated by measuring the decrease in substrate and increase in product after 24 h incubation. […]

Data set [2] can be described thus: In vitro glycosylation of proviolacein by purified UGT enzymes (% conversion). Type of data set: biochemical. The conditions noted are these: 350 μM proviolacein, 24 h incubation at 30° c. The method, then: as §1, §2, §3

B1: Bs109_1: glycosyltransferase from Bacillus subtilis (SEQ ID NO: 68) (protein, listed as Bacillus subtilis)
chain: MKKYHISMINIPAYGHVNPTLALVEKLCEKGHRVTYATTEEFAPAVQQAGGEALLYHTSLNIDPKQIREMMEKNDAPLSLLKESLSILPQLEELYKDDQPDLIIYDFVALAGKLFAEKLNVPVIKLCSSYAQNESFQLGNEDMLKKIREAEAEFKAYLEQEKLPAVSFEQLAVPEALNIVFMPKSFQIQHETFDDRFCFVGPSLGERKEKESLLIEKDDRPLMLISLGTAFNAWPEFYKMCIKAFRDSSWQVIMSVGKAIDPESLEDIPANFTIRQSVPQLEVLEKADLFISHGGMNSTMEAMNAGVPLVVIPQMYEQELTANRVDELGLGVYLPKEEVTVSSLQEAVQAVSSDQELLSRVKNMQKDVKEAGGAERAAAEIEAFMKKSAVPQ
Regarding B1, in data set [1], the “Product % production: Mono-glucoside” value came out at 9.02%, the “Product % production: Tetra-glucoside” value was found to be 11.12%, the “Product % production: Total conversion” value is recorded as 30.93% and the “Product % production: Tri-glucoside” value came to 10.80%. Moreover, in data set [2], the “Product % production: Mono-glucoside” value amounted to 2.12%, the “Product % production: Tetra-glucoside” value turned out to be 3.34%, the “Product % production: Total conversion” value came out at 6.69% and the “Product % production: Tri-glucoside” value is 1.23%.

B2: Cp73B: glycosyltransferase from Carica papaya (SEQ ID NO: 72) (protein, listed as Carica papaya)
chain: MGSEVLHHDYSQLNIFFFPFMAHGHMIPTLDMAKLFATHGAKTSIITTPLNLPFFSKSIERFSKQTGLEIGVKLLNFPSVEVGLPSGCENADSLPAGEPLIVNKFFAAAGMLKDPLERLLQEFKPDCLIADMFFPWTTDAAAKFDIPRLVFHGTSFFALSASECIRLYTPFNNVSSDSEPFLVPTLPDEIRLTRNQLADFAMKEGDENGIHRLIKEAKESELKSYGVVVNSFYELEPAYADHYRNFLKRKAWHIGPVSLCNKTVEDKAERGKRASIDEDECLKWLNSKAPNSVIYICFGSMANFNSAQLMEIATALDASGQEFIWVVRREKNENNQEDWLPEGFEQRTEGKGLIIRGWAPQVLILEHEAVGGFVTHCGWNSTLEGVTAGMPMVTWPVSAEQFYNEKLVTEVLKIGLSVGVKKWVRSEGDFVSREKVEQAVREIMVGSEAVERRMRAKAMADMARAAVEKGGSSYNDLNALLREVSLMRRQQSQNQ
For the molecule B2, in data set [1], the “Product % production: Mono-glucoside” value turned out to be 25.65% and the “Product % production: Total conversion” value was 25.65%. Further, in data set [2], the “Product % production: Mono-glucoside” value came to 8.12% and the “Product % production: Total conversion” value was found to be 8.12%.

B3: Pt73Y: glycosyltransferase enzyme from Populus trichocarpa (SEQ ID NO. 64, 66) (protein, listed as Populus trichocarpa)
chain: MGSLGHQLHIFFLPFFAHGHMIPSVDMAKLFASRGIKTTIITTPLNAPFFSKTIQKTKELGFDINILTIKFPAAEAGLPEGYENTDAFIFSENAREMTIKFIKATTFLQAPFEKVLQECHPDCIVADVFFPWATDAAAKFGIPRLVFHGTSNFALSASECVRLYEPHKKVSSDSEPFVVPDLPGDIKLTKKQLPDDVRENVENDFSKFLKASKEAELRSFGVVVNSFYELEPAYADYYKKVLGRRAWNVGPVSLCNRDTEDKAGRGKETSIDHHECLKWLDSKKPNSVVYICFGSTTNFSDSQLKEIAAGLEASGQQFIWVVRRNKKGQEDKEDWLPEGFEERMEGVGLIIRGWAPQVLILDHEAIGAFVTHCGWNSTLEGITAGKPMVTWPIFAEQFYNEKLVTDVLKTGVGVGVKEWFRVHGDHVKSEAVEKTITQIMVGEEAEEMRSRAKKLGETARKAVEEGGSSYSDFNALIEELRWRRP
As to B3, in data set [1], the “Product % production: Di-glucoside” value is reported as 8.95%, the “Product % production: Mono-glucoside” value is given as 8.69%, the “Product % production: Penta-glucoside” value came out at 10.98% and the “Product % production: Tetra-glucoside” value is 10.31%. For the same molecule, in data set [1], the “Product % production: Total conversion” value is given as 54.41% and the “Product % production: Tri-glucoside” value was determined as 15.47%. In data set [1] (24 h incubation at 30° C., HPLC), the “reduction in violacein concentration compared to the no-enzyme control” value was found to be 75%. For the same molecule, in data set [2], the “Product % production: Di-glucoside” value is given as 0.15%, the “Product % production: Mono-glucoside” value turned out to be 0.12%, the “Product % production: Penta-glucoside” value is listed as 0.78% and the “Product % production: Tetra-glucoside” value came out at 1.22%. In data set [2], the “Product % production: Total conversion” value was 3.4% and the “Product % production: Tri-glucoside” value was found to be 1.13%.

B4: Bs109A1: glycosyltransferase from Bacillus subtilis (SEQ ID NO: 70) (protein, listed as Bacillus subtilis)
chain: MKKHHISMINIPAYGHVNPTLALVEKLCEKGHRVTYATTEEFAPAVQQAGGEALIYHTSLNIDPKQIREMMEKNDATLSLLKESLSILPQLEELYKDDQPDLIIYDFVALAGKLFADKLNVPVIKLCSSYAQNESFQLGNEDMLKKIKEAEAEFKAYLEQEQLPAVSFEQLAVPEALNIVFMPKSFQIQHETFDDRFCFVGPSLGKRTEQESLLIDKGDRPLMLISLGTAFNAWPEFYKMCIDAFRDSSWQVIMSVGKSIDPESLDDTPANFTIRQSVPQLEVLAKADLFISHGGMNSTMEAMNAGVPLVVIPQMYEQELTAKRVDELGLGVYLQREEVTVSKLQEAVQAVSGDQELLSRVKSMQKDVKEAGGAERAAAEIEAFMKKSAVPQ
B4: in data set [1], the “Product % production: Di-glucoside” value came out at 10.57%, the “Product % production: Mono-glucoside” value worked out at 11.05%, the “Product % production: Penta-glucoside” value amounted to 11.46% and the “Product % production: Tetra-glucoside” value was 14.10%. In addition, in data set [1], the “Product % production: Total conversion” value was found to be 62.47% and the “Product % production: Tri-glucoside” value is 15.29%. In addition, in data set [2], the “Product % production: Di-glucoside” value is recorded as 1.45%, the “Product % production: Mono-glucoside” value is 2.45%, the “Product % production: Penta-glucoside” value worked out at 2.11% and the “Product % production: Tetra-glucoside” value turned out to be 1.98%. Also, in data set [2], the “Product % production: Total conversion” value came to 10.11% and the “Product % production: Tri-glucoside” value is listed as 2.12%.
